Reference: patent US20250152732A1
One block for each substance: values may come before it.

Target: target ligand expressed on MutuDC1940 cells
Assay: cell-based or functional assay

- relative expression level of the Firefly luciferase gene against general lipid nanoparticles, MutuDC1940 cells, 10% FBS, LP ratio 5,000:1 to 100,000:1: 5 to 20 times
- relative expression level of the Firefly luciferase gene against general lipid nanoparticles, MutuDC1940 cells, no serum, LP ratio 5,000:1 to 10,000:1: 5 to 20 times
Substance: antibody-bound lipid nanoparticle carrying a fragment of the NLDC145 antibody conjugated with the membrane scaffold protein MSP1E3D1 (scFv)

- relative expression level of the Firefly luciferase gene against general lipid nanoparticles, MutuDC1940 cells, 10% FBS, LP ratio 500:1 to 100,000:1: 5 to 20 times
- relative expression level of the Firefly luciferase gene against general lipid nanoparticles, MutuDC1940 cells, no serum, LP ratio 500:1 to 1,000:1: 5 to 20 times
Substance: antibody-bound lipid nanoparticle carrying a fragment of the NLDC145 antibody conjugated with the membrane scaffold protein ApoE3 (scFv)

- relative expression level of the Firefly luciferase gene against general lipid nanoparticles, MutuDC1940 cells, 10% FBS, LP ratio 1,000:1 to 100,000:1: 5 to 20 times
- relative expression level of the Firefly luciferase gene against general lipid nanoparticles, MutuDC1940 cells, no serum, LP ratio 500:1 to 10,000:1: 5 to 20 times
Substance: antibody-bound lipid nanoparticle carrying a fragment of the NLDC145 antibody conjugated with the membrane scaffold protein ApoA1 (scFv)
